The text below walks through data of paper PMC9940631 (Molecular Cancer Therapeutics, 2022).

Data set [1] deals with T1, endogenous Nectin-4 expressed on the cell membrane of MDA-MB-468 cells (Homo sapiens, UniProt Q96NY8).
T1 sequence (Q96NY8 32-510): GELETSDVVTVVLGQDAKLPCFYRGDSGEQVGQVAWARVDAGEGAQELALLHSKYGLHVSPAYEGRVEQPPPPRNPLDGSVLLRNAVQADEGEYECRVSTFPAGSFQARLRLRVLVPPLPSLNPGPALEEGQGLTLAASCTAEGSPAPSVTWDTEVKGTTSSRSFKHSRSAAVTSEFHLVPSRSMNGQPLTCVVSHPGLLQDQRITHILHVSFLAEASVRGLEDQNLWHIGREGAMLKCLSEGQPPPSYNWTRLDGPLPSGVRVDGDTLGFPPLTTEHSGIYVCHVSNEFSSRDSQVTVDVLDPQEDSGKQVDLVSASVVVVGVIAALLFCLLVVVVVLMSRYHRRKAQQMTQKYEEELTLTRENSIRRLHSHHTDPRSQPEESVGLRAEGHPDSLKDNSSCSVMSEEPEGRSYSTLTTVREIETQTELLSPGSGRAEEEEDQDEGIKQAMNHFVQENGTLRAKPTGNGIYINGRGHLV
As to the kind of experiment: High content imaging of binding to live MDA-MB-468 cells. To be noted: anti-MMAE antibody detection.

For data set [2], the system named is NCI-H292, MDA-MB-468, and NCI-H322 CDX tumors. As to the kind of experiment: Tumor MMAE accumulation after BT8009 in CDX models. It counts as in vivo, mouse. To be noted: after administration of BT8009, three CDX models, n = 3 per timepoint, LC/MS-MS.
Data set [3] has as its target endogenous Nectin-4 expressed on the cell membrane of MDA-MB-468 cells (human (endogenous in MDA-MB-468)) (UniProt Q96NY8). As to the kind of experiment: high content imaging of binding to live cells.
Another data set has as its target hNecl1 (human) (UniProt Q8N126). As to the kind of experiment: SPR.
Data set [4] addresses human Nectin-4 extra-cellular domain (human) (UniProt Q96NY8). As to the kind of experiment: SPR. (In general: Surface plasmon resonance follows binding to a sensor surface in real time, without labels.)
Another data set concerns the target hNecl5 (human) (UniProt P15151). Description: SPR.
The target in another data set is hNectin3 (human) (UniProt Q9NQS3). As to the kind of experiment: SPR.
Sequence of hNectin3 (human) (Q9NQS3 58-549): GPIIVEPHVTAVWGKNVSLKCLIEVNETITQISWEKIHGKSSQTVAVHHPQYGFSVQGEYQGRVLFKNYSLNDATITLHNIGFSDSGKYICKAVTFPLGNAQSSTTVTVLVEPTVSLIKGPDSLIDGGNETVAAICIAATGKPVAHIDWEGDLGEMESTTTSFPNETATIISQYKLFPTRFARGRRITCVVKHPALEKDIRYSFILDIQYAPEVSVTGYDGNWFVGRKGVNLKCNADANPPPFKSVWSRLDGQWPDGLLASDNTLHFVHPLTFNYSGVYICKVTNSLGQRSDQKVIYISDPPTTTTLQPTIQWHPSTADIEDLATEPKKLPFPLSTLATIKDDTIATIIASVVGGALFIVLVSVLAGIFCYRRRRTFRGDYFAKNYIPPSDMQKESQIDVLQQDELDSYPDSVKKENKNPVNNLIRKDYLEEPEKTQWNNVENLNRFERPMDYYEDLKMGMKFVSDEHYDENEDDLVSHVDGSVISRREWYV
The next data set has as its target hNecl4 (human) (UniProt Q8NFZ8). Description: SPR.
Another data set addresses hNecl3 (human) (UniProt Q8N3J6). Description: SPR.
Another data set has as its target hNecl2 (human) (UniProt Q9BY67). As to the kind of experiment: SPR.
The next data set concerns the target hNectin2 (human) (UniProt Q92692). As to the kind of experiment: SPR.
Another data set has as its target hNectin1 (human) (UniProt Q15223). Description: SPR.
The next data set deals with Nectin-4. Description: SPR of Nectin-4 ADC. It counts as binding. To be noted: read-out: KD for Nectin-4, chip coated with ADC, protein passed over it.
Data set [5] deals with head and neck PDX (HN-13–001). Description: Head and neck PDX model. To be noted: dosed initially at 5 mg/kg (D0, D7) and subsequently 10 mg/kg (D14). It counts as in vivo, mouse.
A further data set deals with LU-01–0412 PDX. Description: LU-01–0412 lung PDX model. It counts as in vivo, mouse. The following applies: PDX NSCLC, Fig. 6D; rate and degree of regression comparable.
For data set [6] the following is noted: In ICR SCID mouse; ref Enfortumab vedotin data from literature; cited from earlier work.
For data set [7] the following is noted: terminal plasma half-life; ref EV multi-disciplinary review and evaluation; cited from earlier work.
For data set [8] the following is noted: terminal plasma half-life; ref EV multi-disciplinary review and evaluation; cited from earlier work. The source holds these as a separate data set.

Where a SMILES comes first, the peptide text is derived from it. [ ]: non-standard residue; d: D form. The star is where a group is joined. Dolaproine = CO[C@@H]([C@@H]1CCCN1)[C@@H](C)C(=O)O; Dil = CC[C@H](C)[C@H](NC)[C@@H](CC(=O)O)OC; X1 = C[C@@H](N*)[C@@H](O)c1ccccc1; NMeV = CN[C@H](C(=O)O)C(C)C

Sequence of hNectin2 (human) (Q92692 32-538): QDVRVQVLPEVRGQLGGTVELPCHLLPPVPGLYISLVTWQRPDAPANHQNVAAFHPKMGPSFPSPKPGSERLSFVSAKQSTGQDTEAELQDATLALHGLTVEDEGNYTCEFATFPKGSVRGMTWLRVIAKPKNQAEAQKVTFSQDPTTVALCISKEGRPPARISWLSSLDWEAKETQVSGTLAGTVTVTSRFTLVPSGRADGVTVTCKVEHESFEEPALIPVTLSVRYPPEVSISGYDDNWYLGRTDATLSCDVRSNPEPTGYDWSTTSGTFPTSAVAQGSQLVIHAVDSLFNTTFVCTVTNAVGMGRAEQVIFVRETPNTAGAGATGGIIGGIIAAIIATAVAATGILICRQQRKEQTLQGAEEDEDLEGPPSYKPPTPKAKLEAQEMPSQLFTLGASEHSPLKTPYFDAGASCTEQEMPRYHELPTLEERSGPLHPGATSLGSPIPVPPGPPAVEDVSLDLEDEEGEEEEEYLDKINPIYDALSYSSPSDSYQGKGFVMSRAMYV
Sequence of hNectin1 (human) (Q15223 31-517): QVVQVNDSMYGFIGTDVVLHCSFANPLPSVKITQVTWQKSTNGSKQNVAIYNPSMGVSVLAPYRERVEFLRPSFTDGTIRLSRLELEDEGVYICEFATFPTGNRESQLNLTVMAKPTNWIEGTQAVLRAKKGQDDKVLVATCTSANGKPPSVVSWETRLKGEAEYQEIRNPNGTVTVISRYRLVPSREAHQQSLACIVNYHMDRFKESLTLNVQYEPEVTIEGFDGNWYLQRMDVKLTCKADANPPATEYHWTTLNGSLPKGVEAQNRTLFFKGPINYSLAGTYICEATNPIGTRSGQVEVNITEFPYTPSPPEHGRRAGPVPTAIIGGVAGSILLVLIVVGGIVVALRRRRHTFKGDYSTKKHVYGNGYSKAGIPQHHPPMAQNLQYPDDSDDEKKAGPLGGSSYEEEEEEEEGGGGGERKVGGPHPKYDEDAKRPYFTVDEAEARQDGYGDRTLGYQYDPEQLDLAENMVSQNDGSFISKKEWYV
Sequence of hNecl3 (human) (Q8N3J6 25-435): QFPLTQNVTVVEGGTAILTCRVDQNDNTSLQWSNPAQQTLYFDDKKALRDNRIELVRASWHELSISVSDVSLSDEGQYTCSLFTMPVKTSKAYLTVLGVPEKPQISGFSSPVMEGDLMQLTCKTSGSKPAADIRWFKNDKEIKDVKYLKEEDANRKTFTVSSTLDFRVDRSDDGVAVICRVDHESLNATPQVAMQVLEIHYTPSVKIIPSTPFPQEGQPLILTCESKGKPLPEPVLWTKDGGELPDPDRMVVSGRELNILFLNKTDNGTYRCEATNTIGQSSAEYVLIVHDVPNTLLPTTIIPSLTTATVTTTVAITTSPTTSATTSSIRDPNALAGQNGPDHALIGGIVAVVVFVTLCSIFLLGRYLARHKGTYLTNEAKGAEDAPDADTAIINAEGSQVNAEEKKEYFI
Sequence of hNecl2 (human) (Q9BY67 45-442): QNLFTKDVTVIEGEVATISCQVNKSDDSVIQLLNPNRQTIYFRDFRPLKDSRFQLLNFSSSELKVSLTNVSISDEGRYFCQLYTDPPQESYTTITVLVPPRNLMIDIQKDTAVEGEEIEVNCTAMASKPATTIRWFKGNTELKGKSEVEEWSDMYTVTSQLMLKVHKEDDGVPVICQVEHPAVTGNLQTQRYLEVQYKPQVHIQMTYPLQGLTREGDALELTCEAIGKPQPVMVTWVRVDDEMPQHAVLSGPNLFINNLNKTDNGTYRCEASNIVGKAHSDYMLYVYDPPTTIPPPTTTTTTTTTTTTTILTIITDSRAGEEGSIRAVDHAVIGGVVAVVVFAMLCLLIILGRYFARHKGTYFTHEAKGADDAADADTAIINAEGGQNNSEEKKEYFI
Sequence of hNecl5 (human) (P15151 21-417): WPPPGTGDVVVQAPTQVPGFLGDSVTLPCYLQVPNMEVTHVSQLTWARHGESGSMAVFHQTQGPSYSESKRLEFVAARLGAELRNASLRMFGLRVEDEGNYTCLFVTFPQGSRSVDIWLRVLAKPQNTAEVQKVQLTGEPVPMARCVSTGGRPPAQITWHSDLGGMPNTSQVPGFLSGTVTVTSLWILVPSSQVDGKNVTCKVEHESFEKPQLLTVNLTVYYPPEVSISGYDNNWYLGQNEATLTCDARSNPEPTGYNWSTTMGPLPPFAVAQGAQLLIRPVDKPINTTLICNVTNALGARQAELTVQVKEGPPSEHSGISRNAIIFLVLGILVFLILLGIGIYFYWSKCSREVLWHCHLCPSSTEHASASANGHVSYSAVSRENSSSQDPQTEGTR
Sequence of hNecl1 (human) (Q8N126 25-398): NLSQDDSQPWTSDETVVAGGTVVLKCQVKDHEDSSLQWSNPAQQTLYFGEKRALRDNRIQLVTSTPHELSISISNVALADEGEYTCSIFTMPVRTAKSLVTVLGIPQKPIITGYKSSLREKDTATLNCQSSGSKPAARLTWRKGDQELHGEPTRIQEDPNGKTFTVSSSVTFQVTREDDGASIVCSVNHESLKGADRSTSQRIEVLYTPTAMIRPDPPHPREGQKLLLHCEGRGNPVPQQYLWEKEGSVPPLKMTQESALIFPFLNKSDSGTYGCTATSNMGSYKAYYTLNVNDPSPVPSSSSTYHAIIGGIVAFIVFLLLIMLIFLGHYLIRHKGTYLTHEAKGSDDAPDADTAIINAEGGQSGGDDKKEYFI
Sequence of hNecl4 (human) (Q8NFZ8 21-388): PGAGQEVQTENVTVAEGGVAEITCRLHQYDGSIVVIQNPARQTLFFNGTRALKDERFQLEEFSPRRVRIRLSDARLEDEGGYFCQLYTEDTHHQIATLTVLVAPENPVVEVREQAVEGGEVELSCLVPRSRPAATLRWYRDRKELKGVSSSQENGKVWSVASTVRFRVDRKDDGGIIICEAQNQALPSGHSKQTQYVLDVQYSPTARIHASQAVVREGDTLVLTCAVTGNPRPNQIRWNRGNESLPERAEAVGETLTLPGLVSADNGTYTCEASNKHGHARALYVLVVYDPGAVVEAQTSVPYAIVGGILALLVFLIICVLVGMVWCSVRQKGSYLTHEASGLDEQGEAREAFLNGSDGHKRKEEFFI

For the compound `CC[C@H](C)[C@@H]([C@@H](CC(=O)N1CCC[C@H]1[C@H](OC)[C@@H](C)C(=O)N[C@H](C)[C@@H](O)c1ccccc1)OC)N(C)C(=O)[C@@H](NC(=O)[C@@H](NC)C(C)C)C(C)C` [MMAE, mono-methylauristatin E] (H-[NMeV]V[Dil][Dolaproine]-X1), in [1] (MDA-MB-468 cells, 4°C), the “affinity for the cells (in words)” value is “no affinity”. Besides, in data set [2], the “time to peak tumor concentrations of total MMAE” value lay within 2 to 4 h.
What is called Kd is the concentration at which binding is half-saturated. Compound BCY8781 (peptide) came in with a dissociation constant (Kd) in [3] of more than 10 µM.
In the case of BT8009 (peptide), the Kd was 0.0129 µM in [3]; more than 20 µM in the data set with hNecl1 (human); 0.0025 µM in data set [4]; more than 20 µM with hNecl5 (human); more than 20 µM in the data set with hNectin3 (human); more than 20 µM in the data set with hNecl4 (human). Moreover, the Kd with hNecl3 (human), with hNecl2 (human), with hNectin2 (human) and in the data set with hNectin1 (human) was more than 20 µM each time.
For “Nectin-4 ADC: in-house EV analog; enfortumab-sequence antibody conjugated with MC-VC-PAB MMAE, 152kDa, DAR 3.98”, the “Bmax(RFU) on MDA-MB-468 cells” value in data set [1] (45 minutes at 4°C) amounted to 35.2 ± 2.2 RFU. Also, at Nectin-4, the Kd is 0.0012 to 0.0046 µM. In data set [5], the “antitumor response, ADC” value was “minimally reduced tumor growth rate”. Moreover, the “tumor regrowth after treatment cessation” value with LU-01–0412 PDX is given as “tumor regrowth from drug cessation”.
Take enfortumab vedotin [EV]: the “Vdss (L/kg), EV, Mouse” value in data set [6] was 0.08 L/kg. The “EV t1/2 rat” value in [7] is 24 to 31.2 h. Further, the “EV t1/2 NHP” value in data set [8] was 17 to 40.8 h.
